Assays:
[1] = substrate: N[C@@H](CO)C(=O)O; assay: purified protein; settings: 100 μM palmitoyl-CoA, 25 μM PLP, pH 7.5, 30 °C, active site in LCB2a/LCB1
[2] = substrate: CCCCCCCCCCCCCCCC(=O)SCCNC(=O)CCNC(=O)[C@H](O)C(C)(C)COP(=O)(O)OP(=O)(O)OC[C@H]1O[C@@H](n2cnc3c(N)ncnc32)[C@H](O)[C@@H]1OP(=O)(O)O; assay: purified protein; assay type: biochemical, Arabidopsis thaliana; settings: 100 mM L-serine, 25 μM PLP, pH 7.5, 30 °C, active site in LCB2a/LCB1

B1: AtSPT-ORM1 complex (LCB1, LCB2a, SPTssa, ORM1) (Arabidopsis thaliana) (protein)
chain 1: MITIPYLTAVSTYFSYGLLFAFGQLRDFFRRFIDWWFTSNLQGYAPICLGHEDFYIRRLYHRIQDCFERPISSAPDAWFDVVERYSNDNNKTLKRTTKTSRCLNLGSYNYLGFGSFDEYCTPRVIESLKKFSASTCSSRVDAGTTSVHAELEECVTRFVGKPAAVVFGMGYATNSAIIPVLIGKGGLIISDSLNHSSIVNGARGSGATIRVFQHNTPSHLERVLREQIAEGQPRTHRPWKKIIVVVEGIYSMEGEICHLPEVVAICKKYKAYVYLDEAHSIGAIGKTGKGICELLGVDTADVDVMMGTFTKSFGSCGGYIAGSKELIQYLKHQCPAHLYATSIPTPSAQQIISAIKVILGEDGSNRGAQKLARIRENSNFFRAELQKMGFEVLGDNDSPVMPIMLYNPAKIPAFSRECLRQKVAVVVVGFPATPLLLARARICISASHSREDLIRALKVISKVGDLSGIKYFPAEPKKIEQSKNDIKLD
chain 2: MANLYVKAVPPPDMNRNTEWFMYPGVWTTYMLILFFGWLVVLSVSGCSPGMAWTVVNLAHFVVTYHSFHWMKGTPFADDQGIYNGLTWWEQMDNGQQLTRNRKFLTLVPVVLYLIASHTTDYRHPWLFLNTLAVMVLVVAKFPNMHKVRIFGINGDK
chain 3: MASNLVEMFNAALNWVTMILESPSARVVLFGVPIRGHFFVEGLLGVVIIILLTRKSYKPPKRPLTEQEIDELCDEWVPEPLIPPITEDMKHEPPVLESAAGPHTTVNGKDVVNFASANYLGLIGHEKLLESCTSALEKYGVGSCGPRGFYGTIDVHLDCETRISKFLGTPDSILYSYGLSTMFSTIPCFCKKGDVIVADEGVHWGIQNGLQLSRSTIVYFKHNDMESLRITLEKIMTKYKRSKNLRRYIVAEAVYQNSGQIAPLDEIVKLKEKYRFRVILDESNSFGVLGRSGRGLAEHHSVPIEKIDVVTAAMGHALATEGGFCTGNARIIDYQRLSSSGYVFSASLPPYLASAAITAIDVIDQNPDMLVKLKQNVALLWKGLSDIKGMSLTSNRESPIVFLKLEKSSGSAKDDLLLLEKMADRALKEDSLLVVSSKRSFLDKCRLPVGIKLYVSAGHSESDLLKASESLKRLASELLLKS
notes: full-length codon-optimized cDNAs; N-terminal Flag on SPTssa, other chains untagged; HEK293F, GDN; dimer of 1:1:1:1 protomers; endogenous ceramide copurifies; with Long chain base biosynthesis protein 1; Serine palmitoyltransferase small subunit A
With B1 the Km [1] was 10.44 ± 0.88 mM and the K0.5 [2] was 69.05 ± 6.13 µM.

B2: AtSPT complex (LCB1, LCB2a, SPTssa) (Arabidopsis thaliana) (protein)
chain 1: MITIPYLTAVSTYFSYGLLFAFGQLRDFFRRFIDWWFTSNLQGYAPICLGHEDFYIRRLYHRIQDCFERPISSAPDAWFDVVERYSNDNNKTLKRTTKTSRCLNLGSYNYLGFGSFDEYCTPRVIESLKKFSASTCSSRVDAGTTSVHAELEECVTRFVGKPAAVVFGMGYATNSAIIPVLIGKGGLIISDSLNHSSIVNGARGSGATIRVFQHNTPSHLERVLREQIAEGQPRTHRPWKKIIVVVEGIYSMEGEICHLPEVVAICKKYKAYVYLDEAHSIGAIGKTGKGICELLGVDTADVDVMMGTFTKSFGSCGGYIAGSKELIQYLKHQCPAHLYATSIPTPSAQQIISAIKVILGEDGSNRGAQKLARIRENSNFFRAELQKMGFEVLGDNDSPVMPIMLYNPAKIPAFSRECLRQKVAVVVVGFPATPLLLARARICISASHSREDLIRALKVISKVGDLSGIKYFPAEPKKIEQSKNDIKLD
chain 2: MASNLVEMFNAALNWVTMILESPSARVVLFGVPIRGHFFVEGLLGVVIIILLTRKSYKPPKRPLTEQEIDELCDEWVPEPLIPPITEDMKHEPPVLESAAGPHTTVNGKDVVNFASANYLGLIGHEKLLESCTSALEKYGVGSCGPRGFYGTIDVHLDCETRISKFLGTPDSILYSYGLSTMFSTIPCFCKKGDVIVADEGVHWGIQNGLQLSRSTIVYFKHNDMESLRITLEKIMTKYKRSKNLRRYIVAEAVYQNSGQIAPLDEIVKLKEKYRFRVILDESNSFGVLGRSGRGLAEHHSVPIEKIDVVTAAMGHALATEGGFCTGNARIIDYQRLSSSGYVFSASLPPYLASAAITAIDVIDQNPDMLVKLKQNVALLWKGLSDIKGMSLTSNRESPIVFLKLEKSSGSAKDDLLLLEKMADRALKEDSLLVVSSKRSFLDKCRLPVGIKLYVSAGHSESDLLKASESLKRLASELLLKS
notes: full-length codon-optimized cDNAs; N-terminal Flag on SPTssa, other chains untagged; HEK293F, GDN; without ORM1; with Serine palmitoyltransferase small subunit A
Protein B2 has a Km [1] of 7.33 ± 0.65 mM and a K0.5 [2] of 8.29 ± 0.80 µM.

From PMC10058238, “Mechanism of sphingolipid homeostasis revealed by structural analysis of Arabidopsis SPT-ORM1 complex” (Science Advances, 2023)
